Reference: patent US20260022175A1 (Chugai, published 2026)
Where a chain is given by its changes, count along the chain named.

T1: hFcγRIIaH on hFcγRIIaH-expressing Jurkat cells (human, UniProt P12318 34-317)
T1 sequence (looked up): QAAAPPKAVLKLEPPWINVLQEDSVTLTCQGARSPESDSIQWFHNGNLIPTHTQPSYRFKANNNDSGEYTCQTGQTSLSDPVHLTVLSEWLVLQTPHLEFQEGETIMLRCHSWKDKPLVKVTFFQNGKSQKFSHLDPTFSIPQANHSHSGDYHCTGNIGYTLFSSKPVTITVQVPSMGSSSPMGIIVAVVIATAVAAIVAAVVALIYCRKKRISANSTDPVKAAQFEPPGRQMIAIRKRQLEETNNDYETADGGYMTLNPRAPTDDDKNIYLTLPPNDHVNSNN

T2: human FcγRIIa H extracellular domain (human, UniProt P12318 34-217)
T2 construct: extracellular domain; also called hFcγR IIa H
T2 sequence (looked up): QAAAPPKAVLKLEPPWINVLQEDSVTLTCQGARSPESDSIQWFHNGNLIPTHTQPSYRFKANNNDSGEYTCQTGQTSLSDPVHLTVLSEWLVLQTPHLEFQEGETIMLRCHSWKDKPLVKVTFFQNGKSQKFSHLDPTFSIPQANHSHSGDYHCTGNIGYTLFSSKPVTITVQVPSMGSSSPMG

T3: human FcγRIIa R extracellular domain (human, UniProt P12318 34-217)
T3 construct: extracellular domain; also called hFcγR IIa R
T3 sequence (looked up): T2 sequence (looked up) with H134R

T4: human FcγRIIb extracellular domain (human, UniProt P31994 43-217)
T4 construct: extracellular domain; also called hFcγR IIb
T4 sequence (looked up): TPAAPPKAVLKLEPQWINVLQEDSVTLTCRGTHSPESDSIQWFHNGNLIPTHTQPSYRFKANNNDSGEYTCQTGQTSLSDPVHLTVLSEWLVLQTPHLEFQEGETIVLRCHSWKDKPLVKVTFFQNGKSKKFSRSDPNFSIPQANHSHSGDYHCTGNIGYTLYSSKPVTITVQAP

B1: H240-Kn120/L73-k0//H240-Hl068/L73-k0 (antibody, human IgG1, kappa)
heavy 1: QDQLVQSGAEVKKPGASVKVSCKASGFNIKDTYIQWVRQAPGQGLEWMGRIDPLRKQTKYREKFEGRVTITADTSTNTAYMELSSLRSEDTAVYYCVRSGREFDYWGQGTLVTVSSASTKGPSVFPLAPSSKSTSGGTAALGCLVKDYFPEPVTVSWNSGALTSGVHTFPAVLQSSGLYSLSSVVTVPSSSLGTQTYICNVNHKPSNTKVDKKVEPKSCDKTHTCPPCPAPEYYWGPMVFLFPPKPKDTLMISRTPEVTCVVVDVSDEDPEVKFNWYVDGVEVHNAKTKPREEQYNATYRVVSVLTVLHQDWLNGKEYKCKVSNKDLPAPIEKTISKAKGQPREPQVCTLPPSRDELTKNQVSLWCLVKGFYPSDIAVEWESNGQPENNYKTTPPVLDSDGSFFLYSKLTVDKSRWQQGNVFSCSVMHEALHNHYTQKSLSLSP
heavy 2: QDQLVQSGAEVKKPGASVKVSCKASGFNIKDTYIQWVRQAPGQGLEWMGRIDPLRKQTKYREKFEGRVTITADTSTNTAYMELSSLRSEDTAVYYCVRSGREFDYWGQGTLVTVSSASTKGPSVFPLAPSSKSTSGGTAALGCLVKDYFPEPVTVSWNSGALTSGVHTFPAVLQSSGLYSLSSVVTVPSSSLGTQTYICNVNHKPSNTKVDKKVEPKSCDKTHTCPPCPAPELLGGPSVFLFPPKPKDTLMISRTPEVTCVVVDVSHEEPEVKFNWYVDGVEVHNAKTKPREEQYNSTYRVVSVLTVLHQDWLNGKEYKCKVSNDALPKPIEETISKAKGQPREPQVYTLPPSRCELTKNQVSLSCAVKGFYPSDIAVEWESNGQPENNYKTTPPVLDSDGSFFLVSKLTVDKSRWQQGNVFSCSVMHEALHNHYTQKSLSLSP
light: DIQMTQSPSSLSASVGDRVTITCRASQDIHKYIAWYQQKPGQAPRLLIQYTSTLQPGVPSRFSGSGSGTDYTFTISSLQPEDIATYYCLQYEQLRTFGGGTKVEIKRTVAAPSVFIFPPSDEQLKSGTASVVCLLNNFYPREAKVQWKVDNALQSGNSQESVTEQDSKDSTYSLSSTLTLSKADYEKHKVYACEVTHQGLSSPVTKSFNRGEC
notes: also called EGL-ART2; ART2
B2: H240-Kn125/L73-k0//H240-Hl076/L73-k0 (antibody, human IgG1, kappa)
heavy 1: B1 heavy 1 with Y234Q, D269E, D326A
heavy 2: B1 heavy 2 with K329M
light: B1 light
notes: Anti-human Epiregulin heterodimerized IgG1 Fc variant; also called EGL-ART1; ART1
B3: H240-Kn456/L73-k0//H240-Hl446/L73-k0 (antibody, human IgG1, kappa)
heavy 1: B1 heavy 1 with Y233F, Y234Q, T249V, D269E, T306P, D326A, A329M, I331E
heavy 2: B1 heavy 2 with G235A, T249V, S297A, T306P, K329M, I331E
light: B1 light
notes: also called EGL-ART4; ART4
B4: H240-Kn462/L73-k0//H240-Hl445/L73-k0 (antibody, human IgG1, kappa)
heavy 1: B1 heavy 1 with Y233F, Y234Q, T249V, D269E, T306P, K325D, D326A
heavy 2: B1 heavy 2 with G235A, T249V, S297A, T306P, I331D
light: B1 light
notes: also called EGL-ART6; ART6
B5: H240-Kn498/L73-k0//H240-Hl518/L73-k0 (antibody, human IgG1, kappa)
heavy 1: B1 heavy 1 with Y233F, Y234Q, T249V, D269E, T306P, D326A, A329M
heavy 2: B1 heavy 2 with T249V, S297A, T306P, K329M
light: B1 light
notes: also called EGL-ART12; ART12

Experiments:
[1] = target: hFcγRIIIaV on hFcγRIIIaV-expressing Jurkat cells (human, UniProt P08637 17-254); test: cell-based or functional assay
Chain of hFcγRIIIaV on hFcγRIIIaV-expressing Jurkat cells (P08637 17-254, form in doubt): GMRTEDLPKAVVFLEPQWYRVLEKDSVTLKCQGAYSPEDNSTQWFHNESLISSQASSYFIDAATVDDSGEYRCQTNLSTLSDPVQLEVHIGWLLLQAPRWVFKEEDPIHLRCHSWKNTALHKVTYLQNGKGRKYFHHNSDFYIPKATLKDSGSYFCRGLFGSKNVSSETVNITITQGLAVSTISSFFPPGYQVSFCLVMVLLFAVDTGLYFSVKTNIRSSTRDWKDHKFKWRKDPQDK

[2] = target: T1, hFcγRIIaH on hFcγRIIaH-expressing …; test: cell-based or functional assay
[3] = target: T5, human FcγRIa extracellular domain (human, UniProt P12314 16-292); test: SPR Biacore 8K+; KD of G1d divided by KD of this antibody;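 note: antibodies captured on an anti-Fab-kappa streptavidin chip, soluble FcγR ectodomains flowed over, KD by steady-state fit for FcγRIIb and Langmuir kinetic model for the other receptors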
T5 construct: extracellular domain; also called hFcγR Ia; hFcγRIa
T5 sequence (P12314 16-292): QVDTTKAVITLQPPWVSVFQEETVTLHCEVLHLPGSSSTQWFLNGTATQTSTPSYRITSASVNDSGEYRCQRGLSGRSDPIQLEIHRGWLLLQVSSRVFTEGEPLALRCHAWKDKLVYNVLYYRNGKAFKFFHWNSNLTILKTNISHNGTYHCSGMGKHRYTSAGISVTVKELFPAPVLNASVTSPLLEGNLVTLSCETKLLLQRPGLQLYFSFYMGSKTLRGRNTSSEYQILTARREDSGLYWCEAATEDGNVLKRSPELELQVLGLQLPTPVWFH
Experimental: (§1) The interaction between the produced antibodies and human FcγRs was analyzed using Biacore 8K+ by the method below. For the running buffer, 50 mM Na-Phosphate, 150 mM NaCl, and 0.05% Tween20 (pH 7.4) was used, and measurement was performed at 25° C. The sensor chip used was a Series S SA chip (GE Healthcare) onto which CaptureSelect Human Fab-kappa Kinetics Biotin Conjugate (Thermo Fisher Scientific) was immobilized. An antibody of interest was captured onto this chip, and each FcγR diluted with the running buffer was allowed to interact with it. The chip was regenerated using 10 mM Glycine-HCl (pH 1.5), and repeatedly used to capture antibodies and perform measurement. The dissociation constants KD (mol/L) of each antibody for FcγRs were calculated using Biacore Insight Evaluation Software, with a steady state affinity model for the dissociation constant for FcγRIIb and a 1:1 Langmuir binding model for the dissociation constants for the other FcγRs (Table 48).

[4] = target: T2, human FcγRIIa H extracellular domain; test: as above
Experimental: as §1

[5] = target: T3, human FcγRIIa R extracellular domain; test: as above
Experimental: as §1

[6] = target: T4, human FcγRIIb extracellular domain; test: as above
Experimental: as §1

[7] = target: T6, human FcγRIIIa F extracellular domain (human, UniProt P08637 17-208); test: as above
T6 construct: extracellular domain; also called hFcγR IIIa F
T6 sequence (P08637 17-208): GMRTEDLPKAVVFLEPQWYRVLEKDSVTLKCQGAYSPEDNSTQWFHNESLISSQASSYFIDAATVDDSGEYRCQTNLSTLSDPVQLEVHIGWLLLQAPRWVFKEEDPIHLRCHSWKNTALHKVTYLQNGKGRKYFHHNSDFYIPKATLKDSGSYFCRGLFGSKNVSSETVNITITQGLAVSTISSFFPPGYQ
Experimental: as §1

[8] = target: T7, human FcγRIIIa V extracellular domain (human, UniProt P08637 17-208); test: as above
T7 construct: extracellular domain; also called hFcγR IIIa V
T7 sequence (P08637 17-208 F176V limits assumed): as the sequence (P08637 17-208) above, with F160V counted along it
Experimental: as §1

[9] = target: T2, human FcγRIIa H extracellular domain; test: SPR Biacore 8K+; KD for FcγRIIb divided by KD for this FcγR;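 note: antibodies captured on an anti-human Fab kappa SA chip with soluble human FcγR ectodomains flowed over, FcγRIIb KD from steady-state fit, other FcγR KD from Langmuir model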
[10] = target: T3, human FcγRIIa R extracellular domain; test: as above
[11] = target: T6, human FcγRIIIa F extracellular domain; test: as above
[12] = target: T7, human FcγRIIIa V extracellular domain; test: as above
[13] = target: T5, human FcγRIa extracellular domain; test: SPR Biacore 8K+, antibody captured, FcγR as analyte, 1:1 Langmuir model;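 note: antibodies captured on a streptavidin chip through a biotinylated anti-human Fab kappa reagent, with FcγR extracellular domains injected in pH 7.4 phosphate buffer at 25 °C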
[14] = target: T2, human FcγRIIa H extracellular domain; test: as above
[15] = target: T3, human FcγRIIa R extracellular domain; test: as above
[16] = target: T6, human FcγRIIIa F extracellular domain; test: as above
[17] = target: T7, human FcγRIIIa V extracellular domain; test: as above
[18] = target: T4, human FcγRIIb extracellular domain; test: SPR Biacore 8K+, antibody captured, FcγR as analyte, steady state affinity model
Experimental: as §1

| Binder | EC50 value (hFcγRIIIaV ADCC Reporter Bioassay, Hepa1-6/hEREG target cells) [1] [µg/mL] | EC50 value (hFcγRIIaH ADCP Reporter Bioassay, Hepa1-6/hEREG target cells) [2] [µg/mL] | Relative value to KD between G1d and hFcgRs [3] | Relative value to KD between G1d and hFcgRs [4] | Relative value to KD between G1d and hFcgRs [5] | Relative value to KD between G1d and hFcgRs [6] | Relative value to KD between G1d and hFcgRs [7] | Relative value to KD between G1d and hFcgRs [8] | A/I ratio (KD for FcγRIIb divided by KD for each FcγR) [9] | A/I ratio (KD for FcγRIIb divided by KD for each FcγR) [10] | A/I ratio (KD for FcγRIIb divided by KD for each FcγR) [11] | A/I ratio (KD for FcγRIIb divided by KD for each FcγR) [12] | Kd [13] [nM] | Kd [14] [nM] | Kd [15] [nM] | Kd [16] [nM] | Kd [17] [nM] | Kd [18] [nM] |
| --- | --- | --- | --- | --- | --- | --- | --- | --- | --- | --- | --- | --- | --- | --- | --- | --- | --- | --- |
| B1 | 0.00135 | 0.0218 | 3.4 | 14.7 | 49 | 22.8 | 460 | 215 | 5.8 | 13 | 68.4 | 264 | 0.0264 | 76.4 | 33.8 | 6.43 | 1.67 | 440 |
| B2 | 0.000716 | 0.0353 | 3 | 4.3 | 1.6 | 0.8 | 1170 | 323 | 47.4 | 12.4 | 4950 | 11300 | 0.0302 | 264 | 1010 | 2.53 | 1.11 | 12500 |
| B3 | 0.000789 | 0.0432 | 2.9 | 6.3 | 3.2 | 0.9 | 2520 | 462 | 65.2 | 22.5 | 9940 | 15000 | 0.0305 | 179 | 518 | 1.17 | 0.775 | 11700 |
| B4 | 0.0015 | 0.0192 | 1.2 | 118 | 24.1 | 3.4 | 987 | 322 | 307 | 42.4 | 976 | 2630 | 0.0737 | 9.52 | 68.9 | 3 | 1.11 | 2920 |
| B5 | 0.000304 | 0.085 | 3.4 | 3.1 | 1 | 0.5 | 578 | 158 | 60.3 | 12.8 | 4310 | 9720 | 0.0261 | 366 | 1720 | 5.12 | 2.27 | 22100 |
